Measured values reported in patent US20040106555, “Neurogenin3 and production of pancreatic islet cells” (published 2004).

Tests used:
[1] = molecular target: T1, E47/NeuroD1 heterodimer (UniProt P15923-2;Q60867 P15923-2:1-651,Q60867:1-357); assay: EMSA; second strongest of four; settings: tags: TNT reticulocyte lysate; label: 32P
Description: (§1) FIGS. 23A-23B are photographs of electromobility shift assays (EMSAs) showing that bHLH factors bind pancreatic promoter E boxes. EMSA were used to test the ability of E47, neurogenin3 and neuroD 1 to bind to labeled, double stranded oligonucleotides containing the E box sequences from the rat insulin I and mouse nkx2.2 promoters (23A) or the human PAX4 and NEUROG3 promoters (23B). 1 μl of each in vitro-translated protein was incubated with the indicated probes, either individually or in the combination shown. Results are typical of experiments done on three occasions.
(§2) Electromobility Shift Assays. Single stranded oligonucleotides were 5′-end labeled using (γ-32P) ATP and T4 polynucleotide kinase. An excess of complementary strand was then annealed to form a duplex strand that was column purified. EMSA buffers and electrophoresis conditions were as described above using 500 ng of poly(dIdC):poly(dIdC) per 10 ul binding mix. For in vitro produced protein, 1 μl of the 50 μl total reaction volume was used per binding mix.
(§3) Oligonucleotides used were as follows (coding strand shown from each double stranded pair): NEUROG3 promoter E element, 5′-[…]-3′; rat insulin I promoter E2 element, 5′-[…]-3′; PAX4 promoter E element, 5′-[…]-3′; nkx2.2 promoter E3 element 5′-[…]-3′. EMSA results are representative of those seen on at least 3 occasions.

[2] = molecular target: T2, E47 (UniProt P15923-2 P15923-2:1-651); assay: EMSA; comparable affinity on all four probes; settings: tags: TNT reticulocyte lysate; chain copies: 2 inferred; label: 32P
T2 sequence: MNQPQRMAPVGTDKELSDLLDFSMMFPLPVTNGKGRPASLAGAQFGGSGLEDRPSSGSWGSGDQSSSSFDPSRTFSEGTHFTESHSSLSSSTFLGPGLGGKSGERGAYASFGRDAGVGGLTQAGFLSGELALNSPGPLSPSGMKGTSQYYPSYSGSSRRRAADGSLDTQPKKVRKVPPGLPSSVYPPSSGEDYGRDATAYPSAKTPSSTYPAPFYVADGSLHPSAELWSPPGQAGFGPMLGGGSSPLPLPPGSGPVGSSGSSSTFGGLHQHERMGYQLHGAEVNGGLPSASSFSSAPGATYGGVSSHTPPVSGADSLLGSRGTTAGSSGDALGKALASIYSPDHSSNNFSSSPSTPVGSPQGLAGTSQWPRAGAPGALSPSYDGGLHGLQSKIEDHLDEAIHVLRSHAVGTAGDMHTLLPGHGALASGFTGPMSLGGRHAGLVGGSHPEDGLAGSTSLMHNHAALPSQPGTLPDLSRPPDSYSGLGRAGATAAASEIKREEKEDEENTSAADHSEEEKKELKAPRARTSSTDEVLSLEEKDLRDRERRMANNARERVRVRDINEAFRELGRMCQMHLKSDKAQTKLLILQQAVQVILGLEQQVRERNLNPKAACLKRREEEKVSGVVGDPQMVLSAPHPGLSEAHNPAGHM
Description: as §1, §2, §3

[3] = molecular target: T1, E47/NeuroD1 heterodimer; assay: EMSA; strongest of four; settings: tags: TNT reticulocyte lysate; label: 32P
Description: as §1, §2, §3

[4] = molecular target: T3, HNF3beta (FOXA2) (Rattus norvegicus, UniProt P32182 P32182:1-458); assay: EMSA; high affinity; settings: tags: pGEM-1 ratHNF3beta, TNT lysate; label: 32P
T3 sequence: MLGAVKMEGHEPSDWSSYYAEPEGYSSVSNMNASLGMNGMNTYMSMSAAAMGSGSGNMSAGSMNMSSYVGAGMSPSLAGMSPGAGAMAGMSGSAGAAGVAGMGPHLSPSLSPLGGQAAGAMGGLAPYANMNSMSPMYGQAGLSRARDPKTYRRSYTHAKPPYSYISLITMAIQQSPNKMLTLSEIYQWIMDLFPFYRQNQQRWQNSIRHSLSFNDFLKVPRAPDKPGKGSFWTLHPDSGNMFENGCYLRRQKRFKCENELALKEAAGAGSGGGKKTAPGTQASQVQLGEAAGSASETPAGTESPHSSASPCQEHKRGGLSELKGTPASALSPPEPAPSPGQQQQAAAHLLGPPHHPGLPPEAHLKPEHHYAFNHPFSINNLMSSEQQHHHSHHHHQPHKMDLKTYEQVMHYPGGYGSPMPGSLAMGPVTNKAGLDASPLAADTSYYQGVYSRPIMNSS
Source text: (§4) Single-stranded oligonucleotides corresponding to the sequences in the human ngn3 promoter were 5′ end-labeled with [γ-³²P]-ATP using T4 polynucleotide kinase. The labeled oligonucleotides were column-purified and annealed to an excess of the complementary strand. For HNF3β and HNF 1α binding experiments, EMSA buffers and electrophoresis conditions were as previously described (Mirmira et al. J Biol Chem 275:14743-51, 2000). For HES-1 binding experiments, conditions were the same except that the poly(dI-dC) concentration was decreased to 15 ng/ul. One μl of the in vitro reaction mixture or 2 ug of nuclear extracts or 400 ng of GST-fused Hes1 protein were used for each binding reaction. When using antibodies, 1 μl of each antibody was incubated with the binding mix for 15 min at room temperature prior to gel-electrophoresis. The antisera against HNF-3α, -3β, and -3γ were a generous gift from R. Costa (University of Illinois) and the HES-1 antiserum was a generous gift from Y. Jan (University of California San Francisco). The anti-HNF-1α antiserum was purchased from Santa Cruz Biotechnology, Inc. […]

[5] = molecular target: T3, HNF3beta (FOXA2); assay: EMSA; high affinity; proximal and distal sites compete equally; settings: tags: pGEM-1 ratHNF3beta, TNT lysate; label: 32P
Source text: as §4

[6] = molecular target: T1, E47/NeuroD1 heterodimer; assay: EMSA; third of four; settings: tags: TNT reticulocyte lysate; label: 32P
Description: as §1, §2, §3

[7] = molecular target: NeuroD1 (UniProt Q60867 Q60867:1-357); assay: EMSA; homodimer; settings: tags: TNT reticulocyte lysate; chain copies: 2 stated; label: 32P
Description: as §1, §2, §3

T1 sequence (Q60867 whole entry, one chain of several): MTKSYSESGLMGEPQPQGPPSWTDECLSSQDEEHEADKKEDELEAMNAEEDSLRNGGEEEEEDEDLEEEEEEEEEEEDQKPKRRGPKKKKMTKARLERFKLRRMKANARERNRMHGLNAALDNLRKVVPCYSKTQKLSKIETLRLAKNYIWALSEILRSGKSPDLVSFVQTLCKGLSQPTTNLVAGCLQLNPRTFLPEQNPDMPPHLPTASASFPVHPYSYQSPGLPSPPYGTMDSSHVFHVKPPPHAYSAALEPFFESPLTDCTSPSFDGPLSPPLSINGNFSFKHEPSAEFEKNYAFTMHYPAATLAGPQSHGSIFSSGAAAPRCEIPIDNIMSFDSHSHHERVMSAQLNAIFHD
Sequence of NeuroD1 (Q60867 whole entry, one chain of several): as above

B1: rat insulin I E2 (dsDNA)
DNA 1: CTGCTTCATCAGGCCATCTGGCCCCTTGTTAATAA
DNA 2: TTATTAACAAGGGGCCAGATGGCCTGATGAAGCAG
- binding result [1]: binds
- binding result [2]: binds

B2: PAX4 E box (dsDNA)
DNA 1: TGTATAATTGTGAGCAGATGGCGGGGGCTGGCGGC
DNA 2: GCCGCCAGCCCCCGCCATCTGCTCACAATTATACA
- binding result [3]: binds
- binding result [2]: binds

B3: H3-1 (ngn3 promoter proximal) (dsDNA)
DNA 1: GATCTCTCGAGAGAGCAAACAGCGCGGCGG
DNA 2: CCGCCGCGCTGTTTGCTCTCTCGAGAGATC
- binding result [4]: binds

B4: H3-2 (ngn3 promoter distal) (dsDNA)
DNA 1: TTATTATTATTTTAGCAAACACTGGAGACAG
DNA 2: CTGTCTCCAGTGTTTGCTAAAATAATAATAA
- binding result [5]: binds

B5: nkx2.2 E3 (dsDNA)
DNA 1: TTATTACCGCTGAACATATGGCCAATATTTTGACT
DNA 2: AGTCAAAATATTGGCCATATGTTCAGCGGTAATAA
- binding result [2]: binds
- binding result [6]: binds
- binding result [7]: binds

B6: NEUROG3 E box (dsDNA)
DNA 1: CTTTGTCCGGAATCCAGCTGTGCCCTGCGGGGGAG
DNA 2: CTCCCCCGCAGGGCACAGCTGGATTCCGGACAAAG
- binding result [2]: binds
